Source: PMC11203576

Key:
Assay in all cases: SPR; Biacore T200; […] (0.01 M HEPES, 0.15 M NaCl, 3 mM EDTA, 0.05% surfactant P20, […]
[1] = target: SARS-CoV-2 spike protein RBD, Omicron variant, sfGFP fusion (SARS-CoV-2) (UniProt P0DTC2)
[2] = target: SARS-CoV-2 spike protein RBD, Delta variant, sfGFP fusion (SARS-CoV-2) (UniProt P0DTC2)
[3] = target: SARS-CoV-2 spike protein RBD, Alpha variant, sfGFP fusion (SARS-CoV-2) (UniProt P0DTC2)

Row | Substance | Kd [1] | Kd [2] | Kd [3]
1 | Recombinant Microcystis viridis NIES-102 lectin (rMVL) (from UniProt Q9RHG4 1-114) (natural protein) | 2.73 µM |  | 
2 | Jacalin (natural protein) | 0.478 µM | 0.339 µM | 0.32 µM
